Assay results: article PMC6650407 (Scientific Reports, 2019)
Positions count from the first letter of the chain named. Names may count otherwise. Values belong to the molecule of their own block, whether it stands above or below them.

Experiments:
[1] = target: T1, SyFumC (GST-SyFumC; Synechocystis 6803 fumarase C) (Synechocystis sp. PCC 6803, UniProt Q55674); assay: inhibition, absorbance at […] nm; format: biochemical; settings: read-out: % of control activity at 4 mM
T1 construct: gene fumC
T1 sequence (Q55674 1-466): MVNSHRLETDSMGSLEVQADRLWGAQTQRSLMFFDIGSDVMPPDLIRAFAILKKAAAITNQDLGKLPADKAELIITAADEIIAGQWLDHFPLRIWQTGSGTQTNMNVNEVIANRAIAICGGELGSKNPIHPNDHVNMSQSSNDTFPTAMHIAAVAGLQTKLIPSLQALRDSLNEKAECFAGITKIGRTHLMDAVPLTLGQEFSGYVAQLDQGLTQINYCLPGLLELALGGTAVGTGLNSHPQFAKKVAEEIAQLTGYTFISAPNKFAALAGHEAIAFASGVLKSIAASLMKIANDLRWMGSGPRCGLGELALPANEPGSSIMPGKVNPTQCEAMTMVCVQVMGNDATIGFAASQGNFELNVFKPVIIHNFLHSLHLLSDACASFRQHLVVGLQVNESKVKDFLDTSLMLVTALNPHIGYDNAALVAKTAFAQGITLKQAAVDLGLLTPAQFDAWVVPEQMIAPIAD

[2] = target: T2, SyFumC (GST-SyFumC; Synechocystis 6803 fumarase C) (Synechocystis sp. PCC 6803, UniProt Q55674, A314E); assay: absorbance at […] nm, saturation curve; format: biochemical; settings: 100 mM Tris-HCl pH 7.5, 30 °C, no effector
T2 construct: gene fumC
T2 sequence (Q55674 whole entry A314E): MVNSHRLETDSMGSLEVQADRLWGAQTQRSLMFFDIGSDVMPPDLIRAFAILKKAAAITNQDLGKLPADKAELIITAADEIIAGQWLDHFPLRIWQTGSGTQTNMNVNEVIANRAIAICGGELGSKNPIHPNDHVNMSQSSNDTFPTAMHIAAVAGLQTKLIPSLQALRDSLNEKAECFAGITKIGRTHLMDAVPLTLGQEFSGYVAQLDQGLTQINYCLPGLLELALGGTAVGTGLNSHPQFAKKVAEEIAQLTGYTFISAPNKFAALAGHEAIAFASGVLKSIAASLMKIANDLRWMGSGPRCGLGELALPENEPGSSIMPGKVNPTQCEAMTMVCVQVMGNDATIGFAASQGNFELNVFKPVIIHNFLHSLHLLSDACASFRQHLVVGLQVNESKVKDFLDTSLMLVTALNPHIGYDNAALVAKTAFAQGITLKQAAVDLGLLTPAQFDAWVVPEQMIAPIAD

[3] = target: T1, SyFumC (GST-SyFumC; Synechocystis 6803 fumarase C); assay: absorbance at […] nm, saturation curve; format: biochemical; settings: 100 mM Tris-HCl pH 7.5, 30 °C, no effector
purified protein = substrate: O=C(O)C[C@H](O)C(=O)O; assay: purified protein; settings: 100 mM Tris-HCl pH 7.5, 30 °C, no effector

remaining activity at 4000 µM [1]: 45 to 58%
Molecule: O=C(O)CCC(=O)O [succinate]

Km [2]: 179 ± 36 µM | Km [3]: 244 ± 26 µM
Molecule: O=C(O)/C=C/C(=O)O [fumarate]

Second part, the molecule before the results:

B1: SyFumC (GST-SyFumC; Synechocystis 6803 fumarase C) (Synechocystis sp. PCC 6803 substr. Kazusa) (protein)
chain: T1 sequence (Q55674 1-466)
Km (purified protein): 478 ± 112 µM | kcat (purified protein): 42.3 s⁻¹ | kcat/Km (purified protein): 90300 M⁻¹ s⁻¹

B2: SyFumC (GST-SyFumC; Synechocystis 6803 fumarase C) (Synechocystis sp. PCC 6803 substr. Kazusa; A314E) (protein)
chain: T1 sequence (Q55674 1-466) with A314E
Km (purified protein): 442 ± 20 µM | kcat (purified protein): 21.6 s⁻¹ | kcat/Km (purified protein): 49000 M⁻¹ s⁻¹
